Assay results from the supplement of paper PMC9732359.
± gives the uncertainty stated by the source.

assay: protein stability index of a GFP-peptide fusion (yeast GPS) (PSI 1-4); higher = more stable; sorted into four equal gates, so the index is relative within each strain; conditions: doa10∆
How it was run: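 The protein stability index of a peptide was calculated by multiplying its read frequency in each gate by that gate's number and adding the products. The peptides were tiled 17-residue stretches of yeast proteins, fused downstream of GFP on a Cherry-expressing plasmid and carried in yeast as a pooled library. Mid-log cultures in leucine-free medium were sorted into four equal gates by GFP/Cherry ratio, and each gate's plasmids were PCR-amplified and Illumina-sequenced.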

Sequence	protein stability index
SYEKNEDHVEDHRKRKK [LIN1]	3.25 ± 0.1
SYFLKLLGNCYSLRLIN [SRB8]	2.81 ± 0.065
SYFYRRIHVNPSYYGVR [BRR2]	1.5 ± 0.064
SYKDSGLWGFSTATRNV [COR1]	2.98 ± 0.086
SYKRIYGEYPPTKLLVS [PRE8]	2.87 ± 0.083
SYQKLLKNYVLNELHPT [PRP8]	1.62 ± 0.039
SYRGVDLEKLLEMSTED [RPS15]	2.76 ± 0.14
SYTDAQDKSKKIMNVTT [YMR129W/POM152]	2.97 ± 0.1
SYYDNDLDETTQTFNGS [YML031W/NDC1]	2.77 ± 0.043
SYYELETIIFDSELNRA [RRI1]	2.96 ± 0.11
TAASEARKHKLKTLVQG [RPS27A]	2.1 ± 0.24
TAEAPTLSFNFSQKANK [YOR098C/NUP1]	3.27 ± 0.081
TAEDSWAVISAFFREKG [RPB2]	3.26 ± 0.12
TAFNKTRGPFHFRAPSR [RPL16B]	2.95 ± 0.09
TAGAAANALGGLGVNRR [SSN3]	3.51 ± 0.11
TAIGIATKEGVVLGVEK [PUP2]	3.15 ± 0.14
TAILQRQLQYETLGDIL [ECM29]	2.62 ± 0.086
TANATAELNLPTVDEQR [SNF11]	3.04 ± 0.035
TANATANVNASAMPAPY [DSN1]	3.11 ± 0.042
TAPSSQRRVLLSAPLSK [RPL26A]	2.45 ± 0.045
TASFIPLDTIETELPTL [SMC1]	2.58 ± 0.066
TASKIIVIDVDYNKKQD [MED1]	2.21 ± 0.083
TASSEASAGSKEGASTN [YMR153W/NUP53]	3.09 ± 0.2
TASVEKAEFSKEMTLQK [YIL149C/MLP2]	3.25 ± 0.15
TATNSKGEQIAIFPYQD [ECM29]	2.44 ± 0.085
TAVKQGVTSLGIKATNG [PRE8]	2.41 ± 0.065

Sequence	protein stability index
TAVSFVSAAEDESLIRE [PRP28]	2.77 ± 0.093
TCAGGRLFNVVVQDSQT [SMC2]	2.84 ± 0.11
TCDEIQNFENDFSLRYI [REC8]	2.52 ± 0.14
TDAMTESQPKQTGTRRN [MCD1]	3.04 ± 0.12
TDDADDHINWEHIKQDY [NSL1]	3.4 ± 0.1
TDGVIGSRTTTNHVLEV [RPO31]	3.17 ± 0.094
TDKPFSSTQDVILRKIS [CSI1]	2.87 ± 0.13
TDLIREKTMMTFGKPEE [YCS4]	3.14 ± 0.053
TDLPIETAAMASLALAH [RPN1]	1.5 ± 0.046
TDLSGKETIARVTGGMK [RPS14A]	3.06 ± 0.087
TDLTNNSTDGAKITEIG [YIL149C/MLP2]	3.35 ± 0.087
TDRESYPRLQDPSRELN [YCS4]	3.14 ± 0.05
TDRITRLFIKPGQKMSL [BRN1]	3.22 ± 0.11
TDVEKSDPAAKKTATEP [SRP21]	3.2 ± 0.11
TEALLLEHDVEYRPFSK [DIS3]	3.18 ± 0.095
TEDQKVTTNINWRSFNA [SRP68]	3.13 ± 0.097
TEFEFYLLEELESYLIV [SSN8]	2.63 ± 0.099
TEKEEAVAKAAEKKVVR [RPL17A]	3.44 ± 0.087
TEKLSNGFSFTKFNHNK [YOR098C/NUP1]	3.02 ± 0.089
TELLNIYDSEDPQQVFD [RPN3]	2.88 ± 0.1
TEVERAKSLLKLQLGQL [COR1]	1.42 ± 0.042
TFANPNRTFTDPPFRIE [TAF14]	2.35 ± 0.078
TFDLTPEDAQLLLAANT [RPS0A]	2.28 ± 0.054
TFIDKERHQKQLNEKLV [YCS4]	2.62 ± 0.13
TFLKYFGWLLSDNSVSV [IRR1]	2.67 ± 0.14
TFRRRNPYNTRSNKIKV [RPL34A]	1.43 ± 0.04
